Test results from patent publication US10280218B2, “Antibodies binding to BMP4, and uses thereof” (ACADEMISCH MEDISCH CENTRUM, priority 2014, dated 2019).

T1: BMP4 (Homo sapiens, UniProt P12644)
T1 sequence (P12644 293-408): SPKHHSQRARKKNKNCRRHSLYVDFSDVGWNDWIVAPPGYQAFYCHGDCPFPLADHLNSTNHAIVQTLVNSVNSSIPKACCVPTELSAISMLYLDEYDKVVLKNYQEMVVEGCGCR

T2: BMP7 (Homo sapiens, UniProt P18075)
T2 sequence (P18075 293-431): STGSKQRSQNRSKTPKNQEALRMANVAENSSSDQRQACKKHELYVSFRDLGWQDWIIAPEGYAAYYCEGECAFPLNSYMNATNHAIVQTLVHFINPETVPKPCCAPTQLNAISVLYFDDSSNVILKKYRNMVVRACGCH

T3: BMP5 (Homo sapiens, UniProt P22003)
T3 sequence (P22003 317-454): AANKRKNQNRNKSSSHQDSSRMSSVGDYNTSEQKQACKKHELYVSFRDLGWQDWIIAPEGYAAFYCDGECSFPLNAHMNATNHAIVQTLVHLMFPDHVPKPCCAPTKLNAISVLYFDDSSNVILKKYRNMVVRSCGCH

T4: BMP2 (Homo sapiens, UniProt P12643)
T4 sequence (P12643 283-396): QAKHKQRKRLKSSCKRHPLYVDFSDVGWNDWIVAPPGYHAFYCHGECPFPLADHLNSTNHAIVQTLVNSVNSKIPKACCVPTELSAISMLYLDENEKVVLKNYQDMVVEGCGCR

T5: BMP6 (Homo sapiens, UniProt P22004)
T5 sequence (P22004 375-513): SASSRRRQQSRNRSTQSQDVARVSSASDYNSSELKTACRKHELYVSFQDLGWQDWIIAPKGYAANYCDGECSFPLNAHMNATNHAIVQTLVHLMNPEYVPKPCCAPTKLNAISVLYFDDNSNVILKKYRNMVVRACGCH


Legend:
BMP4 = molecular target: T1, BMP4; assay: Surface plasmon resonance (SPR), BMPs injected over VHH-coated chip; assay type: binding; set-up: purchased R&D systems; ka (BMP4): unit not given here; conditions: molecule coupled to chip
Procedure: (§1) To confirm their BMP specificities and to elucidate their binding affinities, our VHHs were subjected to surface plasmon resonance (SPR) analysis. In a first set of experiments, controls and VHHs (either as monomers or dimers) were coupled to SPR chips and the measurement of BMP affinities was obtained by injecting the different BMPs to the plate.
(§2) Serial dilutions (2.0-10 μg/ml) of purified VHHs were spotted on an amine-specific SensEye gold-film gel-type SPRchip (Ssens), using a Continuous Flow Microspotter (Wasatch Microfluidics, Salt Lake City, Utah, United States) as described (Lokate et al., 2007). BMP binding was analyzed on an IBIS MX96 (IBIS Technologies, Enschede, The Netherlands) instrument by performing injections with dilution series (0.05-2.0 μg/ml) of recombinant BMPs on the VHH-coated chip. In each injection, BMPs were injected and incubated for 8 min, followed by 15 min thorough washing with binding buffer (PBS+0.05% Tween20+0.05% sodium azide) to measure dissociation. Epitope binning was done by injecting VHH dilutions (2.0 μg/ml) over the chip, immediately after the dissociation step. Injections with blank binding buffer were used as reference. After each concatenated injection, the chip was regenerated with 10 mM glycine-HCl, pH 2.0. Experimental data were processed with SPRintX software (IBIS Technologies) and kinetic parameters were determined using Scrubber2 software (BioLogic Software, Campbell, ACT, Australia). Binding constants were obtained by global fitting to a one-site binding model.

BMP7 = molecular target: T2, BMP7; assay: as above; assay type: binding; conditions: for Kd: molecule coupled to chip, unit inferred, — not defined there (Table 1: No binding detected)
Procedure: as §1, §2

BMP5 = molecular target: T3, BMP5; assay: as above; assay type: binding; conditions: molecule coupled to chip; unit inferred
Procedure: as §1, §2

BMP2 = molecular target: T4, BMP2; assay: as above; set-up: ka (BMP2): unit not given here; conditions: molecule coupled to chip, —: No binding detected
Procedure: In a first set of experiments, controls and VHHs (either as monomers or dimers) were coupled to SPR chips and the measurement of BMP affinities was obtained by injecting the different BMPs to the plate.
as §2

BMP6 = molecular target: T5, BMP6; assay: BMP activity luciferase reporter assay (BRE-luciferase, ID1 promoter) in C2C12 cells; assay type: cell-based, mouse
Procedure: One of the most studied BMP target genes is the Inhibitor of Differentiation 1 (ID1). This is an immediate early gene that is activated by binding of the phosphorylated SMADs to its promoter region (López-Rovira et al., 2002). Thus, we employed the BMP-responsive C2C12 cells, which are stably transfected with the BRE-luciferase vector containing the BMP-Responsive-Element (the mouse ID1 promoter) cloned into the pGL3 luciferase vector (Zilberberg 2007). […] C2C12 cells were treated with the different BMPs with or without our VHHs or human Noggin at a concentration of 5 μg/ml. Luciferase activity was measured after 16 hours incubation. Most of the transcriptional data is in concordance with the results obtained with the phosphorylation of SMAD1/5/8.
C2C12 cells were plated in 96-well plates at 5×10^3 cells/well and cells were allowed to attach overnight. 100 μl of DMEM with 0.1% BSA were added in each well. VHH antibodies and human Fc-Noggin at the indicated concentrations were added at the same time. Wells with unstimulated cells were added as controls. Cells were treated in triplicate with the BMPs at the indicated concentrations for 16 hours. Luciferase activity was measured by adding 100 μl of luciferase substrate solution from the Bright-Glo™ Luciferase Assay System (Promega Benelux, Leiden, The Netherlands). After 3 minutes of incubation, luciferase activity was measured with Synergy HT Multi-Mode Microplate Reader (Biotek, Winooski, Vt., United States). Luciferase values were normalized to background activity (activity of wells with no cells) and represented as ratio to the activity of BMP-stimulated cells.
C2C12 cells were cultured in 96-well plates at 5×10^3 cells/well. […]

Row | Molecule | ka (BMP4) (BMP4) | kd (BMP4) (BMP4) | unspecific binding of dimers to BMP7 (SPR, in words) (BMP7; in contrast to the functional results) | Kd (BMP7) [µM] | Kd (BMP5) [µM] | ka (BMP2) (BMP2) | kd (BMP2) (BMP2) | inhibition of BMP6-mediated transcriptional activation by dimers (BMP6; BMP6 50 ng/ml, 16 hours, increasing concentrations) | inhibition of BMP-6 signals, comparison of inhibitors (BMP6; 50 ng/ml hBMP6, 16 h, 500 ng/ml)
1 | C8E7: E7 linked to C8, hetero-dimer VHH bihead (protein) EVQLVESGGGLVQAGGSLRLSCAASGRTFRINDMGWYRQAPGKSRDMVARITSGGNTNYADSVKGRFTISRDNAKNTVYLQMNSLKPEDTAVYYCNADGLRFDSTRYRPFDSWGQGTQVTVSSGGGGSGGGGSEVQLVESGGGLVQAGGSLRLSCAASGSIRGFVAMAWYRQAPGKQREWVATVTNGGTLYGDSVKGRFTGSRDNAKNTVYLQMNSLKPEDTAVYYCALRQIGASGYDYWGQGTQVTVSS | 34.6 | 3.4 10^−5 sec^−1 | shown to bind | 0.031 | 0.095 | 19.4 | 10.7 10^−5 sec^−1 | unable to impair | 
2 | hNoggin (protein) QHYLHIRPAPSDNLPLVDLIEHPDPIFDPKEKDLNETLLRSLLGGHYDPGFMATSPPEDRPGGGGGAAGGAEDLAELDQLLRQRPSGAMPSEIKGLEFSEGLAQGKKQRLSKKLRRKLQMWLWSQTFCPVLYAWNDLGSRFWPRYVKVGSCFSKRSCSVPEGMVCKPSKSVHLTVLRWRCQRRGGQRCGWIPIQYPIISECKCSC |  | 3.9 10^−5 sec^−1 |  | 0.08 | 0.068 |  | 16.2 10^−5 sec^−1 |  | inhibited
